According to the nanobody polyreactivity screen of Harvey et al. (2022):

Experiment: yeast display, Sf9 membrane polyspecificity reagent, FACS + sequencing; frameworks hold sequencing errors
Method in brief: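 Nanobodies from a synthetic yeast display library (Saccharomyces cerevisiae BJ5465), induced 36–48 hours with galactose, were stained 1 hour at 4 °C with 10% biotinylated, detergent-solubilized Sf9 membrane reagent, enriched on streptavidin microbeads, then FACS-sorted. Anti-HA (expression) and streptavidin (reagent binding) fluorescence set low and high (top ~1%) gates. Polyreactivity labels come from the gate of origin. Genes were colony-PCR amplified, MiSeq 2 × 250 sequenced and filtered by CDR length.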

Sequence | polyreactivity (PSR sort gate)
QVQLVESGGGLVQAGGSLRLSCAASGFIFRQNAMGWYRQAPGKERELVAAITSSGGRTYYADSVKGRFTISRDNAKNTVYLQMNSLKPEDTAVYYCARRDYWGQGTQVTVSS | high polyreactivity
QVQLVESGGGLVQAGGSLRLSCAASGFTFKFYAMGWYRPAPGKERELVAAISSGGASTYYADSVKGRFTISRDNAKNTVYLQMNSLKPEDTAVYYFAARSGGPSDGSGYWGQGTEVTVSS | low polyreactivity
QVQLVESGGGLVQAGGSLRLSCAASGRTFGTNAMGWYRLAPGKEWELVASISGGTRTNYADSVKGRFTISRDNAKNTVYLQMNSLKPEDTAVYSCAAEVGLPTWYTLPVDDYDYWGQGTQVTVSS | low polyreactivity
QDQLVESGGGLVQAGGSLRLSCAASGFIVHRYVMGWYRQAPGKERELVAAISSGGSTNYADSVKGRFTISRDNAKNSVYLQMTSLKPEDTAVYYCAADGFYYRNWGRFRYYYWGQGTQVNVSS | low polyreactivity
QVQLVESVGCLVQARGSLRLSSAASGLIFPKYAMGWYRPAHGKERELVAAISSSGGSTYYADSVMGRFTISRVNAKNTVYLQMNSLKPEDTAVYYCAAKRFTTVTGYGYWGQGTQVTVSS | high polyreactivity
QVQLVESGGGLVKAGGSLRLSCAASGRIFRYYAMGRYRQAPGKEREFVAAISTDGGRTYYADSVKGRFTISRDNAKNTVYLQMNSLKPEDTAVYYCAIYPGISGYNYWGQGTQVTVSS | high polyreactivity
QVQLVESGGGLVQAGGSLRLSCAASGSTFVLYALGWYRQPPGKERELVAVISWSGGSTYYADSVKGRFTISRDKAKNTVYLQMNSLKPEDTADYYCAATGWSSFYYRFDYWGQGTQVTVSS | low polyreactivity
QVQLVESGGGLVQAGGSLRLSCAASGFILNWYAMGWYRQAPGKERELVAAISWTTSDTYYADSVKGRFTISRDNAKNTVYLQMNSLKPEDTAVYYCNAKFYAYYVTFVLHYDYWGQGTQVTVSS | low polyreactivity
QVQLVESGGGLVQAGGSLRLSCAASGRIFRRYAMGWYRQAPGKEREFVAAISYGGGSTYYADSVKGRFTISRDNAKNTVYLQMNSLKPEDTAVYYCNADEVVWGYNYWGQGTQVTVSS | low polyreactivity
QVQLVESGGGLVQAGGSLRLSCAASGLTFIRYAMGWYRQAPGKQRELVAAISTSGGRTYYADSVKGRFTISRDNAKNNVYLQMNILTPEDTAVYYCNAYWRQGYYPEYYYWGQGTQVTVSS | high polyreactivity
QVQLVESGGGLDQAGGSHRLSCAASGFTFSGYAMGWYRQAPGTESELVAAMTRRGGSTYYADSVKGRFTISRDNAKNTVYLHLNSLKPEDTAVYYCAADSGYPWELDYWGQGTQVTVSS | low polyreactivity
HVQLVESGGGLVQAGGSLRLSCAASGITLTIYVMGGYRQAPGKERELVAAISTSGGSTYYADSVKGRFTISRDNAKNTDYLQMNSLKPEDTAVYYCNATPLRRYYGRYLMDYWGQGTQVTVSS | high polyreactivity
QVQLVESVGGLVQAGGSLRLSCAASGSITVANAMGWYSQAPGKESELVAAITDSGDDTYYADSVKGRFTNSRDNAKNTVYLLMNSLKAEDTAVYYCAVEAWSVPPYDYWGQGTQVTVSS | low polyreactivity
QVQLVESGGGLVQAGGSLRLSCAASGLTFYYYAMGWYRQAPGKEREFVAAISRSGGTTYYADSVKGRFTISRDNAKNTVYLQMISLKPEDTAVYYCNAQWWRYWPSQVIFDYWGQGTQVTVSS | high polyreactivity
QVQLVESGGGLVQAGGSIRLSCAASGITFAWNAMGWYRQAPGKERELVAAITKRGGSTYYADSVKGRFTISRDNAKNTVYLQMNSLKPEYTAFYYCAARGYISRYDARANAVQGNYWGQGTQVTVSS | high polyreactivity
QVQLVESGGGLVQAGGSLRLSCAASGGTFYPYAMGWYRQAPGKERELVAAISRGGGSTSYADSVKGRFTISRDNAQNTVYLQMNSLKPEDTAVYYSNAYTYYHANHEQGFGYWGQGTQVTVSS | low polyreactivity
QVQLVESGGGLVQAGGSLRLSCAASGSIFVRNAMGWYRQAPGKERELVAGISASGGSTYYADSVKGRFTISRDNAKNTVYLQMNSLKPEDTAVYYCANKVSTRFARYRYDYWGQGTQVTVSS | high polyreactivity
QVQLVESGGGLVQAGGSLRLTCAASGFTFPDKAMGWYRQAPGNERELVAALTTSGGRTYYADSVKGRFTISRDNAKNTVYLQMNRLKPEDTAVYYCARPSRQSHWYYYWGQGTQVTVSS | high polyreactivity
QVQLVESGGGLVQAGGSLRLSCAASGFIFATNAMGWYRQAPGKEREFVAAITSGGSTYYADSVKGRFTISRDNAKNTVYLQMNSLKPEDTAVYYCNARTYSRVTRQTYRYRPYDYWGQGTQVTVSS | high polyreactivity
QVQLVESGGGLVQAGGSLRLSCAASGSTFVNNAMGWYRQAPGKERELVAAISWSGGSTYYADSVKGRFTISRDNAKNTVYLQMNSLNPEDTAVYYCAADGNARAAMDYWGQGTQVTVSS | low polyreactivity
QVQLQESAGGLVQAGGSLRMSCAASGTIFSEANMGWYRQAPGKERELVATIGQGSTTNYADSVKGRFTISRDNAKNTVYLQMNSLKPEETAVYYCAVVTVDPVGFVYWGQGTQVTVSS | low polyreactivity
QVHLVESGGGLVQAGGSLRLSCAASGRIFIYNAMGWYRPPPGKERELVAAINRSGVSTHYADSVKGRFTISRDNAKNTVFLQMNSLKPEDTAVYYCARTVYGARSYDYWGQGTQVTVSS | low polyreactivity

Sequence | polyreactivity (PSR sort gate)
QDQLVESGGGLVQAGGSLRLTSAASGRIFTIYAMGWYRQPPGKDRELVAAISDRGTRTYYADSVKGRFTISRDIAKNTVYLQMNSLKPEDTAVNYCSTDALYTYGYDYWGQGTQVTVSS | low polyreactivity
QVQLVESGGGLVQAGGSLRLSCAASGSILDIYAMGLYRQAPGKERELVAGISTSGGSTYYADSVMGRFTFSRDNAKITVYLQMNSLKPEDTAVYYCAKDYGYQGHTSTLYWAYLEYDFWGQVTQVTVSS | low polyreactivity
QVQLVESGGGLVQAGGSLRLSCAASGSTFCYSVMGWYRQEPRTEREFVAAISTRGDSTYYADSVKGRFTLSRDNAKNTVYLQMNSLKPEDTAVYYCAKSRQSCGRVRLDYWGQGTQVTVSS | low polyreactivity
QVQLVESGGGIVQAGGSLRLSCAASGSIFYQYAMGWYRQAPGKERELVAAISRSGGSTYYADSVKGRFTISRDNAKNNVYLQMNSLKPVDTAVYYCAARAVRAAYDYWGQGTQVTVSS | low polyreactivity
QVQLVESGGGLVQAGGSLRLSCAASGRTFYSNAMGWYRQAPGKERELVAGINIGGGSTYYADSVKGRFTISRDNAKNTVYLQMNSLKPEDTAVYYCAARRWGAYRHGYWGQGTQVTVSS | high polyreactivity
QVQLVESGGGLVQAGGILRLSCASSGRTFKSYTMGWYRQAPGKERELVASISVSGGRTYYADSVKGRFTISRDNAKNTVYLQMNSLKPEDTAVYYCAAYYVHYRPVRGYDYWGQGTEVTVSS | high polyreactivity
QVQLVESGGGLVQAGGSLRLSCAASGGTFDVYTMGWYRPAPGKERELVAAISSSGARTYYADSVKGRFTISRDNAKNTVNLQMNSLKPEDTAVFYCATRSLGLRWHYYYWGQGTQVTVSS | high polyreactivity
QVQLVESGGGLVQAGGSLRLSCAASAFIFRYYAIGGYRQAPGNERELVAAIARSGGSTYYADSVKGRFTISRDNAKNTVYLQMNSLKPEVTAVYYCNRGDVIGRQYDSAYGYWGQGTQVTVSS | high polyreactivity
QVQLVESGGGLVQAGGSLRLSCAASGFTLYSYAMGWYRQAPGKERELVAAIRRRGASTYYADSVKGRFTISRDNAKNTVYLQMNSLKPEDTAVYYCAADAKYPDDDYWGQGTQVTVSS | high polyreactivity
QVQLVESGGGLVQAGGSLRLSCAASGSIFYSNAMGWYRQAPGKERELVAAINWSGVRTYYADSVKGRFTISRDNAKNTVYLQMNSLKPEDTAVYYCAAKTYQQQIVRPMYYWGQCTQVTVSS | high polyreactivity
QVQLVESGGGLVQAGGSLRLSCAASGFIFQRYAMGWYRQAPGKERELVAAITRTGGRTYYADSVKGRFTISRDNAKNTVYLQMNSLKPEDTAVYYCAADRTLSYEYWGQGTQVTVSS | high polyreactivity
QVQLVESGGGLVQAGGSLRLSCAASGSTFGLNAMGWYRQAHGKERDVVAAITRSDITNYADSVKGRFTISRDNAKNTVYLQMNSLKPEDTAVYYCNKTPDRHRRYFGYGYWGQGTQVTVSS | low polyreactivity
QVQLVESGGGLVQAGGSLRLSCAASGYTIYRYAMGWYRQAPGNERELVAAISSAGTTNYADSVKGRFTISRDNAKNTVYLQINSLKPEDTAVYYCNKRGRNHNSLKYGYWGQGTQVTVSS | high polyreactivity
QVQLVESGGGLVQAGGSLRLSCAASGGTFATYAMGWYRQAPGKEKELVAAISWSGGSTYYADSVKGRFTISRDNAKNTVYLQMNSLKPEDTAVYYCNALPRLGGGAEKLDYWGQGTQVTVSS | high polyreactivity
QFQLVESGGGLVQAGGSLRLSCAASGYTFGQYDMGWYRQAPGKERELVAAISTGGVSTYYADSVKGRFTISRDNAKNTVYLQMNSLKPEDTAVYYCATTPYVRYDYWGQGTQVTVSS | low polyreactivity
QVQLVESGGGLVQAGGSLRLSCAASGFIFVYYAMGWYRQAPGKERELVAAITWRGGSTNYADSVKGRFTISRDNAKNTVYLQMNSLIPEDTAVYYCAAYSVWGGSYLALDYWGQGSQVTVSS | low polyreactivity
QVHLVESGGGLVQAGGILRLSCAASGLTFRYYTMGWYRQEPGKERELVASITIRGGSTYYADSVKGRFTISRDNAKNTVYLQMNSLKPEDTAVYYCNTRYGFSFGYWGQGTQVTVSS | high polyreactivity
QVQLVESGGGLVQAGGSLRLSCAASGSTYFRNAMGWYRQAPGKERELVAAISSSCGSTYYADSVKGRFTISRDNAKNTVYLQMTSLKPEDTAVYYCNADWYYAGYGYWGQGTQVTVSS | low polyreactivity
QVQLVESGGGLVQAGGSLRLSCAASGSIFYQYAMGWYRQARGKERELVAAITWDGSRTYYADSVKGRFTISRDNAKNTVYLQMNSLKPEDTAVYYCNANLAWRRYDGTYNYWGQGSQVTVSS | high polyreactivity
QVQRVESGGGLGQAGGSLRLSCAASGIIFDYYAMGWYRQAPGNERELVAAITTSGGRTYYADSVKGRFTISRDNEKNTVYLQMNRLKPEDTAVYYCAASRPSPRPRDGYWGQGTQVTVSS | high polyreactivity
QVQLVESGGGLVQAGGSLRLSCAASGRIVRFYGMGWYRQAPGKERELVAAITDGCGTNYADSVKGRFSISRDNAKNTVYLQMNSLKPEDTAVYYCAADSRFVWSGEYWGQGTQVTVSS | low polyreactivity
